According to the supplement of paper PMC12042874:
± gives the uncertainty stated by the source.

assay: amyloid nucleation score (Sup35N fusion, yeast selection) (log enrichment); library NNK3; higher = more nucleation; inactive = no reads after selection
How it was run: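 The nucleation score is the DiMSum log enrichment of output over input reads, centred on the mode score of non-aggregating sequences. Only sequences with 100 or more input reads were scored, using Illumina sequencing of input and output plasmid inserts. Psi-negative yeast expressing Sup35N fused to peptides of 20 random codons were induced 24 hours with 100 μM copper sulfate and grown 7 days at 30°C on medium lacking adenine and uracil.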

| Substance | amyloid nucleation score |
| --- | --- |
| PGYSHVRLVVSSPPLWTDLA | inactive |
| PHIGYCMW | inactive |
| PHRGACMARTLSEVFCRAGS | inactive |
| PIPTKLLVLKRQSTMHLDRF | inactive |
| PIRSNVAMIPDD | inactive |
| PKNLFISRLPL | inactive |
| PKVRMAPVNERNDFFSVILG | inactive |
| PLCIHLVVMKSKPATNFSGA | inactive |
| PLDQCPKVPSLVASLQSESR | inactive |
| PLEGTALRHMVSMYYLSCWT | inactive |
| PLGDARLTSRRDPPYRTTPL | 0.979 ± 0.17 |
| PLITVDY | -0.153 ± 0.7 |
| PLQDL | inactive |
| PLRKCAMCSWVSSGEGPTYP | 0.483 ± 0.24 |
| PLRKSGQPSYAMPTRHARCI | inactive |
| PLRRSMMRIPHATF | inactive |
| PLSLGFVIGHHVSIPGSSTD | inactive |
| PLTFT | inactive |
| PNCGFVCMKMCATTDLFVCV | inactive |
| PNMSIPLLCLCDNISDFHRF | 1.69 ± 0.12 |
| PNRQDYIVTYLGIPNFLSTW | inactive |
| PNRQTLFSSIRF | 0.092 ± 0.56 |
| PPFYMCFYLFVGLRNSMGWL | inactive |

| Substance | amyloid nucleation score |
| --- | --- |
| PPVLVNGLTLKWEGVYSVNY | 0.802 ± 0.21 |
| PQTWVTWKIWYLGFGVAVGV | inactive |
| PRDCS | inactive |
| PREARQHRVRRTGFSVVFVS | inactive |
| PRGWWPMGFSCGYFVFALTP | inactive |
| PRNMVFYVFCNVSLTHAMYS | 0.845 ± 0.12 |
| PRRSNSFRLPLIHISQYSLK | 0.939 ± 0.2 |
| PRSANSARCVTISSNMEHSR | inactive |
| PRTQSYECVYGYSLKRNWLA | inactive |
| PRYRSLWFAKHMLAVLGSKW | inactive |
| PSHWFISL | inactive |
| PSSIKRVL | -0.33 ± 0.8 |
| PSVHCMWCPRQPDVFPRWIV | inactive |
| PSVPSNHLDCYLTWGT | inactive |
| PSYFVI | inactive |
| PTFNRAMTWYFKFLFHYAHD | inactive |
| PTGLGTAYQLNAWTASFG | inactive |
| PTITMANKDRFLRRCSPNGG | inactive |
| PVFVCCRWHVVFGKNNGSAT | 1.47 ± 0.13 |
| PVHGVGLAIRGSYGSYTGLL | inactive |
| PVKRVIYSRGYVQKCPLCP | inactive |
| PVLGYAECIYKMYKSSQVSW | inactive |
| PVSYVLEEVEPRVRVSGPSG | inactive |

| Substance | amyloid nucleation score |
| --- | --- |
| PVTFSCYNTLACIKLYYGNV | 2.56 ± 0.066 |
| PVWVKYIDYCPSRKHLSCRV | inactive |
| PVYVG | inactive |
| PWGLGNSARCWCFFMGHCEA | -0.889 ± 2.5 |
| PWRRDKSGVVLSWDAISFAW | inactive |
| PYAILFNAWNLSAPMACSWV | inactive |
| PYFFSLRNPRI | inactive |
| PYFFTDLICSFKIGAYEQGS | inactive |
| PYGNSELYSERGERAHCNLG | inactive |
| PYKNI | inactive |
| PYMIEVLRSDVNHDCSHMKW | inactive |
| PYRFLESTSRALYFTFSYTF | inactive |
| PYRGSPACMGDYGNQVGNGS | inactive |
| PYRYLGARIRCMAKDSVSHI | inactive |
| QAGLSCD | inactive |
| QALGVGN | inactive |
| QAQIYWM | inactive |
| QCRQVIENNRVLFVAIKWEN | 0.57 ± 0.58 |
| QCSMDRNT | inactive |
| QCVVVKCCWRDNRWLGSDLV | -0.178 ± 0.54 |
| QDFYFISILACGYIWH | inactive |
| QDKMSMYTYMMR | inactive |
| QDLSYRVGLFWDRSIVLNWY | inactive |

| Substance | amyloid nucleation score |
| --- | --- |
| QDYSELRVSKKKVVRVG | inactive |
| QEWKQWLMSWTSRKAFSLKS | inactive |
| QFCSSYWYQGTAYCLLPIAT | inactive |
| QFDKSNPWNSSSLMMPENGV | inactive |
| QFSNNSLKVRFMCVLYVVDR | -0.039 ± 0.37 |
| QFVAFVYYVCLLWYTGALLI | inactive |
| QGLSGRRGYSDRY | inactive |
| QGNCVNRIC | inactive |
| QILLSLQIWRWWVNRII | inactive |
| QIQGAGHGM | 0.534 ± 0.21 |
| QIYSFFIWIEKTGVCRWLWA | inactive |
| QKIPRDDEPMANQDRLSKIS | inactive |
| QKLVMTYPVIVHNMVNLERY | 1.13 ± 0.074 |
| QKMPSANDRLCISSFLYNLE | inactive |
| QKRIQFTSECTRKRNFWLFS | inactive |
| QKVYNFMWYLFQYIELVYMN | inactive |
| QLCVISWLGR | 1.14 ± 0.15 |
| QLINWFRSDDLSLTAVKRKW | 0.596 ± 0.19 |
| QLSVNMYDCYDNGEHLRIGG | inactive |
| QMRCLY | inactive |
| QMRYLFACFYT | inactive |
| QNTGLYVN | inactive |
| QPLARRIGHISV | inactive |

| Substance | amyloid nucleation score |
| --- | --- |
| QQGFSVLERCISEV | inactive |
| QQHAVR | inactive |
| QQKGHTYKLLYNGGRLYFPT | 0.29 ± 0.51 |
| QQMGYGKADSMFTSLVVYTM | inactive |
| QRCCP | inactive |
| QRKTYRTVEHGMHSSSNL | inactive |
| QSFGMFAVYRAWVSIL | inactive |
| QSHIVSRGLAEENTW | inactive |
| QSLHSYNRSESCSLGSSFWI | inactive |
| QSLIEPSD | inactive |
| QSLRRQYLNYIRSIFESMEN | inactive |
| QSLSNKVMLLSGRVNQVDVA | -0.935 ± 1.5 |
| QSSMLHL | inactive |
| QSYVSFYMQVLRSDRTDILR | inactive |
| QTCSNYLNTFRSRRDWLVKG | inactive |
| QTMAAYLYSWNNTV | inactive |
| QTTLSYIVCMQSRQLRNRAW | 0.848 ± 0.099 |
| QVCPTLWYEVMCLN | inactive |
| QVCYFYIIVLVLD | inactive |
| QVLASTNATESCRIDRDTVV | inactive |
| QVLQKVHG | inactive |
| QVVTSYGGSAVEDITAML | inactive |
| QWKKWLDTACKWVGVGGTIR | inactive |

| Substance | amyloid nucleation score |
| --- | --- |
| QYFHMTWSVIVYEIGVRPYI | -0.449 ± 0.8 |
| QYVIIYEKQLGWRKFDFNSV | inactive |
| QYVVSGMTYFWRYMRLVNVR | inactive |
| QYYFSYSINSRLITCALVQG | 0.214 ± 0.37 |
| RACHFQVIMCMICALCGFAS | 1.91 ± 0.079 |
| RADFLPVKNVMRFRCEFWKR | inactive |
| RADPTRITSPSLLTIMKTHE | inactive |
| RADSGGKCLLAELDGLSPYW | inactive |
| RAHPALVWMIARTKSSSICL | inactive |
| RALKRFYNVIFYFRSYVPVS | inactive |
| RALMGLVIKPKMSNTNLLDY | inactive |
| RANRQQGVGTKQREGHNTVG | inactive |
| RATKVDVRGGVA | -0.911 ± 1.5 |
| RAYGPGRSASEALGRLCVGL | inactive |
| RCAPFNFFPCHIWRYVLTRK | inactive |
| RCCFWVMLFNYARGKRTWCH | inactive |
| RCDNKF | 1.2 ± 0.17 |
| RCGEDNLQGSLSTSTVGNLV | inactive |
| RCHYSSWWESPCQSVM | inactive |
| RCLLYTAY | inactive |
| RCMTHRTLAHENRFVHTRCW | inactive |
| RCPTPTWSINGPC | inactive |
| RCRLSKANFRHWNKEVKWTF | inactive |

| Substance | amyloid nucleation score |
| --- | --- |
| RCRTDILYNFERHYLRVEYA | inactive |
| RCSCCCCNALANDRRVCMVE | inactive |
| RCSRWNWCVVAG | inactive |
| RCTVDVFMHCSKLSNAELSL | 0.833 ± 0.12 |
| RDEASLSYMSPCRYDYCNCF | 0.003 ± 1 |
| RDGHIQMCFIWVKRDNCQVF | inactive |
| RDHSTMQTEVLEWSRNPSMG | inactive |
| RDISGMLYCYEGFYVF | inactive |
| RDMPLMGVYKIPVDAFYSVS | inactive |
| RDSFTVIVSSSSPMPKLVPE | inactive |
| RDTYMGREVCFNNTPERF | 0.21 ± 0.77 |
| RDVCVHPNHFKCGAAMFPED | inactive |
| RDVTC | inactive |
| RDYQCLQLYCRSASPIT | inactive |
| RECVMETWSQVGRWFTCVRV | inactive |
| RELFTFGVFRYQASL | 0.817 ± 0.22 |
| RESDMRSAWGSDVVCLLGDS | 1.11 ± 0.15 |
| RESNNLLFQQVGYLYYSWFY | 1.86 ± 0.078 |
| REVMWKICFRKINYVGYSGK | inactive |
| RFCRRVHMRLDAVGTCVRWW | inactive |
